In the supplement of paper PMC12042874 one finds amyloid nucleation score data, which are given here for 133 substances.

± gives the uncertainty stated by the source.

The nature of this series: amyloid nucleation score (Sup35N fusion, yeast selection) (log enrichment); library NNK3; higher = more nucleation; inactive = no reads after selection. The method, boiled down:
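Peptides of 20 random codons, each fused to Sup35N, were expressed in psi-negative yeast. Cells were induced with 100 μM copper sulfate for 24 hours and grown 7 days at 30°C on medium lacking adenine and uracil, and plasmid inserts before and after selection were Illumina-sequenced. Nucleation scores are DiMSum log enrichments of output over input reads, centred on the mode score of non-aggregating sequences, and sequences under 100 input reads were excluded.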
For DIDRRQRVMHSPMKAWEEVG, the amyloid nucleation score was -0.045 ± 0.98.

Turning to CGMCLGLLHR, the amyloid nucleation score was determined as 0.898 ± 0.21.

VCTLGFFSKMGRGPRYYS: the amyloid nucleation score entry is “inactive”.

Consider DCYKRSVMLKAARSWVNRSL, for which the amyloid nucleation score entry is “inactive”.

For the substance ESCRWLLVFKMVCWQ, the amyloid nucleation score entry was “inactive”.

Take LKLFWSLET: the amyloid nucleation score result is “inactive”.

PVECLDNDQGFLWPEVRVRG: the amyloid nucleation score result is “inactive”.

Regarding MACRSNGLVGPEHTYVPT, the amyloid nucleation score result was “inactive”.

SFFNFRMD: the amyloid nucleation score result was “inactive”.

As to IYNNSYKFCILLVTWTIEVQ, the amyloid nucleation score entry is “inactive”.

With KRFHWFGVGVDAVMRFGV, the amyloid nucleation score entry is “inactive”.

The substance RNGTHCTIDEIYGW returned an amyloid nucleation score of 0.038 ± 0.58.

Substance TVPIILVSTVRANMFFETRN had an amyloid nucleation score of 1.54 ± 0.093.

Regarding FSALMIY, the amyloid nucleation score was determined as 0.015 ± 0.32.

For the substance CLHEDCRMTADSLPSLRKDR, the amyloid nucleation score entry is “inactive”.

As for VSRTSVSRRFYCIARMCSPV, the amyloid nucleation score result is “inactive”.

As to SCLCVSW, the amyloid nucleation score result was “inactive”.

CLGIGWFWVPWRLGVYSQMV: the amyloid nucleation score result was “inactive”.

Take YFSRLTYCSRNSSCWILYCF: the amyloid nucleation score result was “inactive”.

MSNLCDLHKN: the amyloid nucleation score entry is “inactive”.

With SICSEVGSSQLVVL, the amyloid nucleation score entry was “inactive”.

In turn, NYGGFKDFG yielded an amyloid nucleation score of 1.51 ± 0.088.

With PARGLDQEMSSKVFMRGYLA, the amyloid nucleation score result is “inactive”.

As for LCSRRSGMVRIWIVSSARLY, the amyloid nucleation score result was “inactive”.

As for LFSNSLNFLIK, the amyloid nucleation score turned out to be 0.679 ± 0.28.

For SRIGFPICLRRGYVNQDCNG, the amyloid nucleation score result was “inactive”.

With ESIVVRF, the amyloid nucleation score entry was “inactive”.

On to SKRVSALRHKIRKNCVMNFD, for which the amyloid nucleation score result was “inactive”.

Consider RDNYDAFMIL, for which the amyloid nucleation score entry is “inactive”.

Turning to ASLRLLVLVNSMWVGFFFNS, the amyloid nucleation score entry was “inactive”.

For VPKKEKWRFDIVL, the amyloid nucleation score entry is “inactive”.

As for TFKHTFNNVHCSGAFTGSQL, the amyloid nucleation score came out at 0.161 ± 0.25.

As for CSGIIRNMLWGV, the amyloid nucleation score result is “inactive”.

On to GLYKNK, for which the amyloid nucleation score result was “inactive”.

LCRFNLYYWLVFELACSRWN: the amyloid nucleation score result is “inactive”.

With SLDLENILSAE, the amyloid nucleation score entry is “inactive”.

Regarding FCEPDWNEMGMDFVRCGPSL, the amyloid nucleation score entry was “inactive”.

In the case of RVEAPVMPKRRSIHQCSLKK, the amyloid nucleation score entry was “inactive”.

Turning to LARHSCSSNVYGNLQRTFFG, the amyloid nucleation score entry was “inactive”.

Regarding YNGLGMIVPMFLVHPLK, the amyloid nucleation score entry was “inactive”.

On to FVVWCDVTGS, for which the amyloid nucleation score entry was “inactive”.

As to NFLLVPYLSPKLDMGGYHLW, the amyloid nucleation score result is “inactive”.

Substance GACVKDSLVAGNSSMTSAGL returned an amyloid nucleation score of 3.9 ± 0.061.

As for KGDCQWVVPYVIHSNHVRAG, the amyloid nucleation score result was “inactive”.

For RAHICSYSFAIYVFVCN, the amyloid nucleation score came out at 0.661 ± 0.13.

With YLIMSVSYSASTCLIKMAMV, the amyloid nucleation score entry is “inactive”.

As for MAVID, the amyloid nucleation score result is “inactive”.

On to LFHSAMNGSHFSTVHSNSVI, for which the amyloid nucleation score result is “inactive”.

With FTIGRYILFVMKDFVFLWFV, the amyloid nucleation score result was “inactive”.

For the substance LMQDLENVS, the amyloid nucleation score result was “inactive”.

As to ALFTESF, the amyloid nucleation score result was “inactive”.

As for PYWIGNIFVEPSSD, the amyloid nucleation score entry was “inactive”.

On to LQRRYFGSRSLGTFARMFQH, for which the amyloid nucleation score entry was “inactive”.

Consider EMMLWSFNREFMTFYTRSVD, for which the amyloid nucleation score result is “inactive”.

On to IKKHCV, for which the amyloid nucleation score result is “inactive”.

For RTPLYAVLWVEGGLLPYLL, the amyloid nucleation score entry is “inactive”.

With QAIGSKRT, the amyloid nucleation score result is “inactive”.

In the case of VTGHLGKG, the amyloid nucleation score result was “inactive”.

Take FGTHFIESSNVNNNTPVVSP: the amyloid nucleation score entry is “inactive”.

Turning to FVYSMKSCSYRDLGLNSYLL, the amyloid nucleation score entry was “inactive”.

Substance RWDFTSDSISRILTPLNVAK came in with an amyloid nucleation score of 0.836 ± 0.13.

Substance SLNFLR had an amyloid nucleation score of 0.937 ± 0.39.

For VGSNTVM, the amyloid nucleation score was -0.572 ± 0.84.

GSHVTKVLTFYSNVWVHFTG: the amyloid nucleation score result was “inactive”.

As to KYHLGECVLSPLAPKIHWEI, the amyloid nucleation score result was “inactive”.

Substance RYRTRRALHVYDEFVFEFKP had an amyloid nucleation score of -0.057 ± 0.68.

LVEISTVERRALIFYRCIDL yielded an amyloid nucleation score of -0.481 ± 1.4.

For LTLSMKFTWYFYVSIYSGQG, the amyloid nucleation score entry is “inactive”.

With SLTSSFFSSMDVFNSALKGG, the amyloid nucleation score entry is “inactive”.

Turning to VGRVRQVAQLDMGPDMYDRV, the amyloid nucleation score entry is “inactive”.

Substance FIRVFYSCIYVDKVLCEGRL returned an amyloid nucleation score of 1.5 ± 0.11.

Regarding TTFSGETYEYYMFMCW, the amyloid nucleation score is 0.532 ± 0.17.

Substance PSINWASVTVLGCAHSNFRC gave an amyloid nucleation score of 2.29 ± 0.064.

Turning to SLGVNLSISVGKYEYSLSLK, the amyloid nucleation score entry was “inactive”.

In the case of CAFVDSISCLPLFR, the amyloid nucleation score entry is “inactive”.

The substance VYDMDNVRYNHRGNTERFSG yielded an amyloid nucleation score of 0.109 ± 0.28.

As to WRFRPVVYQRRPY, the amyloid nucleation score result is “inactive”.

Consider FIVVQGIAPCGFTS, for which the amyloid nucleation score result was “inactive”.

As for LHMIVALSSSSSMTYDVRVV, the amyloid nucleation score entry was “inactive”.

With MLRDFFQ, the amyloid nucleation score result is “inactive”.

For the substance NPKSSPVVTFWGTGYFSAGV, the amyloid nucleation score entry is “inactive”.

Consider TWCGFWTLMERVYHRRWTSL, for which the amyloid nucleation score result was “inactive”.

Take TDVSHGNLHGVSSWSGVPAD: the amyloid nucleation score entry was “inactive”.

In the case of RFLLVVMF, the amyloid nucleation score entry is “inactive”.

FISDRQSASYPWVQFWPE yielded an amyloid nucleation score of 0.206 ± 0.7.

With PDLIDVFGE, the amyloid nucleation score entry was “inactive”.

In the case of GRYAEETRYRVFLLIVMTRR, the amyloid nucleation score result is “inactive”.

In the case of LPYPPAITALPRPCCVNHRV, the amyloid nucleation score entry was “inactive”.

Consider NGEKLFSEDVVSYWVDVYSR, for which the amyloid nucleation score entry is “inactive”.

Regarding QLRACPWYSEVFIEI, the amyloid nucleation score result was “inactive”.

With VLIRWRYEAYLSHCGSPCAS, the amyloid nucleation score result is “inactive”.

On to DLTNEMQVCVNV, for which the amyloid nucleation score is -0.17 ± 0.88.

MNYRFVISMLWVEVRGFGRQ showed an amyloid nucleation score of -0.892 ± 2.4.

IIISSFSDWCYFGRDDSCRM registered an amyloid nucleation score of -0.36 ± 0.63.

As to KFLYRCINRLANSLIRELPI, the amyloid nucleation score entry is “inactive”.

LMMLCLSVGMMKRSAYRLFT: the amyloid nucleation score entry was “inactive”.

Regarding VLVSVGLVLWACCLRLQ, the amyloid nucleation score result was “inactive”.

On to FYSFCQSKSLMTFSGDLPPS, for which the amyloid nucleation score result was “inactive”.

As to SVMHKSRSRGFNRNDGSVRV, the amyloid nucleation score result was “inactive”.

CFKSIITMNFYINWYFVSSP: the amyloid nucleation score result was “inactive”.

On to RMPNSTFGVGWETGFQHSQG, for which the amyloid nucleation score entry was “inactive”.

In the case of TSTRSEAFRVVVTLPVAVNW, the amyloid nucleation score result is “inactive”.

With ILEVGRQCMDGFCSKFNGEY, the amyloid nucleation score entry is “inactive”.

Turning to DKGVVPL, the amyloid nucleation score result was “inactive”.

In the case of RSTYTSFRARWKRRANGSGW, the amyloid nucleation score result was “inactive”.

Regarding FILQGFPE, the amyloid nucleation score entry was “inactive”.

As for YRWQLRKKALFFFGKFSVHY, the amyloid nucleation score result is “inactive”.

As to HCFLRMWKLLRTYLQVVLET, the amyloid nucleation score entry is “inactive”.

As to KDFGRLLLN, the amyloid nucleation score entry was “inactive”.

Consider FLRRLSRKTKDMDSSRGMCC, for which the amyloid nucleation score result was “inactive”.

Turning to LRPKYTFYCRLD, the amyloid nucleation score was 0.137 ± 0.28.

Regarding NSIILFWRLSRGVYSFLPHK, the amyloid nucleation score result is “inactive”.

With IRCNRYVSL, the amyloid nucleation score entry is “inactive”.

On to LTGFIGICQLVSYFNEVALQ, for which the amyloid nucleation score entry was “inactive”.

Turning to PSGHV, the amyloid nucleation score result is “inactive”.

As for SGKGE, the amyloid nucleation score entry was “inactive”.

Turning to LNYFR, the amyloid nucleation score result is “inactive”.

Consider SSRTTIQ, for which the amyloid nucleation score result was “inactive”.

Consider GGENLTFLRSAFCSNWA, for which the amyloid nucleation score result was “inactive”.

Regarding SETDFYHGFIWGIPIGALSG, the amyloid nucleation score result is “inactive”.

FEYLSMYELGISVMSTAH: the amyloid nucleation score entry is “inactive”.

As for GTTLHYLSRREYGFTGRILF, the amyloid nucleation score entry was “inactive”.

Substance WSMSSVTYNSVCSCGSWCE showed an amyloid nucleation score of 1.87 ± 0.091.

As for MFMRIRSLIE, the amyloid nucleation score result was “inactive”.

Turning to SCFVCNF, the amyloid nucleation score is 2.86 ± 0.059.

Turning to YETYSCEFFVYRLFCLNRSH, the amyloid nucleation score result is “inactive”.

On to SYDVKSSTLW, for which the amyloid nucleation score entry is “inactive”.

Substance THIGFFFNCIL registered an amyloid nucleation score of 2.56 ± 0.082.

On to RVFSTFILYGETKFFLVPET, for which the amyloid nucleation score was 0.677 ± 0.23.

Regarding SCLTDKRSCFC, the amyloid nucleation score was determined as 0.538 ± 0.34.

Consider VVRIGSRACGLRRKVCGGFG, for which the amyloid nucleation score result is “inactive”.

Take LLERDYR: the amyloid nucleation score entry was “inactive”.

Turning to ENSGWSKRVFSSFFMIAMMY, the amyloid nucleation score entry was “inactive”.
